The target of this test is CD3 on CD3-expressing T cells (Jurkat, HPB-ALL) (UniProt P07766). As to the kind of experiment: FACS, HBP-ALL T cells. On the set-up: Bmax: unit not given here. On the technique in general: Flow cytometry measures light scatter and fluorescence of single cells or particles in a stream.

In general, Kd refers to the equilibrium constant for the complex coming apart. With OKT3 (commercial anti-CD3 antibody), the Bmax turned out to be 13300 and the Kd came out at 0.461 nM.

These data come from patent US20240343802A1.
